Values of other authors in PMC4080432.
Like-named read-outs stand apart in the source and are kept apart here.

How the values were obtained:
NapB (Escherichia coli) [1] = target: NapB (Escherichia coli) (UniProt P0ABL3)
NapB (Escherichia coli) [2] = target: NapB (Escherichia coli) (UniProt P0ABL3); remark: listed apart in the source

Sequence of UniProt P0ABL3 (P0ABL3 28-149): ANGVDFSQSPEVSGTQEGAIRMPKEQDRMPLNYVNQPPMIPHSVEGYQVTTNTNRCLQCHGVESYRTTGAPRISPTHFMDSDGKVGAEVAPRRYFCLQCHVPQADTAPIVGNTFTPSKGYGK

Which Kd (NapB (Escherichia coli) [1]) does the source give for NapA (from UniProt P33937) here?
The Kd was 15 µM.

What about the Kd (NapB (Escherichia coli) [2]) of the same substance?
Its Kd is 32 µM.
